Source: the DeepSol protein solubility set

assay: soluble on expression in E. coli; label from the status in PepcDB or PDB records

For “MAQVPPPMTQVVTSAPPPTAAATVVAGAVAGQPQAVIQQGPPPTNIGYPPNATYSMASLYIGDLHPDVSEAMLFEKFSMAGPVLSIRVCRDNTSRLSLGYAYVNFQQPADAERALDTMNFEVIHGRPMRIMWSQRDPAARRAGNGNIFIKNLDRVIDNKSVYDTFSLFGNILSCKVATDDEGNSKGYGFVHFETEHSAQTAIEKVNGMLLSDKKVYVGKFQPRAQRMKELGESGLKYTNVFVKNFGEHLDQEKLSAMFSKFGEITSAVVMTDAQGKPKGFGFVAFADQDAAGQAVEKLNDSILEGTDCKLSVCRAQKKSERSAELKRKYEALKQERVQRYQGVNLYVKNIEEDLNDDGLRDHFSSFGTITSAKVMVDENGRSKGFGFVCFEKPEEATAAVTDMNSKMIGAKPLYVALAQRKEDRRAQLASQYMQRLATLRMGQQASGVPAMTQLYQPGQQGYFVPNPMNAQGRPGFQPQSAQIRGPPGQRVFQNQMFMQYPFNQRQVYPQQQGRPPMRTNDGRPQYGMAPRPAGAPRVGGPGVQMGGAPIRQQGPAPRGAPQKPFYQGPPRQQQPQQHSQQPAQQPGQQGQGQSGIVIHGQETLTSHMLAQAAPQEQKQLLGERIYALIEKMFPNHKEAGKITGMMLEIDNAELIMMLQDAELFRSKVEEAFGVLTNAQSAAASTSAPTAKN”, which “soluble on expression in E. coli” value is on record?
The value was “not soluble”.

For “MARAIHVFRTPDRFVAGTVGQPGNRTFYLQAVHDSRVVSVVLEKQQVAVLAERIGALLFEVNRRFGTPVPPEPTEIDDLSPLIMPVDAEFRVGTMGLGWDSEAQSVVVELLAVTDAEFDASVVLDDTEEGPDAVRVFLTPESARQFATRSYRVISAGRPPCPLCDEPLDPEGHICARTNGYRRDVLLGSGDDPAG”, which “soluble on expression in E. coli” value is on record?
Its value is “soluble”.

For “MARFALVLHAHLPYVRAHGMWPFGEETLYEAMAETYLPLIRVLERLRAEGVEAPFTLGITPILAEQLADARIKEGFWAYAKDRLERAQGDYQRYRGTALEASARHQVAFWELTLDHFQRLSGDLVAAFRKAEEGGQVELITSNATHGYSPLLGYDEALWAQIKTGVSTYRRHFAKDPTGFWLPEMAYRPKGPWKPPVEGPPEGVRPGVDELLMRAGIRYTFVDAHLVQGGEPLSPYGEAALGPVESQEATYHVHELESGLRVLARNPETTLQVWSADYGYPGEGLYREFHRKDPLSGLHHWRVTHRKADLAEKAPYDPEAAFAKTEEHARHFVGLLERLAGRHPEGVILSPYDAELFGHWWYEGVAWLEAVLRLLAQNPKVRPVTAREAVQGPAVRTALPEGSWGRGGDHRVWLNEKTLDYWEKVYRAEGAMREAARRGVLPEGVLRQAMRELLLLEASDWPFLMETGQAEAYARERYEEHARAFFHLLKGASPEELRALEERDNPFPEADPRLYLFREA”, which “soluble on expression in E. coli” value is on record?
The value was “soluble”.

With “MARHSALAQAERLEPLLTTNPLHGATLERIVTHLHDEYGWEELARRVPVKCFQNEPSVGSSLKFLRKTPWAREQVEAEYVKLARREDANPLIDALKRGQALDFTGVSQTKLHAALGWMLRHVEQNAQNLQLYFLPTLAHIQDVNFWPDAEPLPLLNLAIDRSALGAGDYEPGVVAELLRRGADANDPRFWPPLLHTVDVEGQAYQSKTRAPRTDLFDLLLAHGADPALEDSRGNTARSMAEAYGLRAVINKLNTLPAVSGSLEHHHHHH” as the sequence, how does the “soluble on expression in E. coli” value read?
Its value is “soluble”.

For “MARHVFLPPLSVHRHRPHPLGVCGFESFQTLHPRKRAARPDSRPLYELCRHTCLQDFPKIRHPLCRHGTQQHHYARFGAPAPMAAYEKCGGTRRRTSRRQPPFRTRPATQIRLRMAVPPPTYWAEYSTDRLNKEKKNNKPHFVFCTVSHLRRLKGHDVLLTAFARALAQCPQLRLNIGGSGQEEQRLKQQAADLGITHAVTFLGALQPEAVLDLMRNSDAFVLASRTETFGVVYIEALSQGLPVIATRCGGAESIVSDGNGYLVPVDDDDALADALIKMCEHHSDFEPARLRENCLNEFGENAVIGRLIGIFRQAIAEYGKKIPVKYSGLTKIRTRRRSRRQYK”, which “soluble on expression in E. coli” value is on record?
Its value is “not soluble”.

With “MARILVIEDEPLVGHMLRRFLERAGHDVVWAPNGEVGLRRLAEGFDLVVCDLIMPGIPGEEVIRRIREEAGPPVLAVSASVSRESQRRALEAGAQAFLGKPFEAQAFLRVVEGLLRGT” as the sequence, how does the “soluble on expression in E. coli” value read?
Its value is “soluble”.

With “MARLIVNALVSVPLAEIEIGFVRSGGAGGQNVNKLATAAHLRFDIAASSLPETCKTRLLDHRDRRMTAEGIIVIKAQRFGTQEKNREDALARLRGLILQALAQRRPRKPTRPTLAAKKKRLDEKTRHGEIKRLRRRIGDLEHHHHHH” as the sequence, how does the “soluble on expression in E. coli” value read?
Its value is “not soluble”.

Which “soluble on expression in E. coli” value does the source give for “MARLTVHTLETAPEAAKPRVEAVPKNNGFIPNLIGVLANAPEALAFYQEVGKLNAANSLTAGEVEVIRIIAVRTNQCSFCVAGHTKLATLKKLLSEQSLNAARALAAGKSDDAKLGALAAFTQAVMAKKGAVSDDELNAFLEAGYNRQQAVEVVMGVALATLCNYANNLAQTEINPKLQAYA” here?
The value was “not soluble”.

Which “soluble on expression in E. coli” value does the source give for “MARPKSEDKKQALLEAATQAIAQSGIAASTAVIARNAGVAEGTLFRYFATKDELINTLYLHLKQDLCQSMIMELDRSITDAKMMTRFIWNSYISWGLNHPARHRAIRQLAVSEKLTKETEQRADDMFPELRDLCHRSVLMVFMSDEYRAFGDGLFLALAETTMDFAARDPARAGEYIALGFEAMWRALTREEQ” here?
Its value is “not soluble”.

With “MARSDSDKNGNGGNLGFEAELFKAADKLRGNMEPSDYKHVALGLIFLKYISDAFEAKHKALLAEDALAAEDKDEYLADNVFWVPKEARWSHLQANAKQPTIGTLIDDAMRAIEKDNASLKGVLPKDYARPALNKVMLGELIDLISGIGHLLPSPSGRGAGGEGQSFDILGRVYEYFLGQFAGAEGKRGGEFYTPRSVVRVLVEMLEPYSGRVYDPCCGSGGMFVQSEKFVQEHGGRIGDIAIYGQESNYTAWRLAKMNLAVRGIDADIRWNNEGSFHKDELRDLKADYILANPPFNISDWGGDRLREDVRWQFGVPPVGNANYAWLQHIYWHLAPNGTAGVVLANGSMSSNQSGEGEIRRAMLEADAVDCMVALPGQLFYSTQIPACLWFLARNKNPANGKTGGLRDRRGHVLFIDARKMGVLVDRTRRELSDEEIQKIARTYHAWRGEPDAGDYADVAGFCKSATLDEIRKHGHVLTPGRYVGAAEVEDDGEPFEEKMARLAAQWRQQRDEAAKLDAAIEANLKELGFWE” as the sequence, how does the “soluble on expression in E. coli” value read?
The value was “soluble”.

Which “soluble on expression in E. coli” value does the source give for “MARSRGSSRPISRSRPTQTRSASTMAAPVHPQQQQQPNAYSHPPAAGAQTRQPGMFAQMASTAAGVAVGSTIGHTLGAGITGMFSGSGSDSAPVEQQQQNMANTSGQTQTDQQLGRTCEIDARNFTRCLDENNGNFQICDYYLQQLKACQEAARQY” here?
Its value is “soluble”.

With “MARTVFCTRLQKEADGLDFQLYPGELGKRIFDNICKEAWAQWQTKQTMLINEKKLNMMDPEHRKLLEQEMVNFLFEGKEVHIEGYTPPAK” as the sequence, how does the “soluble on expression in E. coli” value read?
The value was “not soluble”.

With “MARYTKEDIFRLAKEENVKYIRLQFTDLLGVIKNVEIPVSQLTKALDNKMMFDGSSIEGFVRIEESDMYLYPDLDTWVIFPWTAEKGKVARLICDIYNADGTPFEGDPRNNLKRVLKEMEALGFSDFNLGPEPEFFLFKVDEKGNPTLELNDNGGYFDLAPMDLGENCRRDIVLELEEMGFEIEASHHEVAPGQHEIDFKYANAIRSCDDIQTFKLVVKTIARKHGLHATFMPKPLYGVNGSGMHCNLSLFKNGENVFFDQNGDLQLSDDARHFIAGILKHAPAFTAVANPTVNSYKRLVPGYEAPCYVAWSAQNRSPLVRIPASRGISTRVEVRSVDPAANPYLVMATLLAAGLDGIKNKLTPPAAVDRNIYVMTKEEREEAGIVDLPATLAQALVTLQSNEVISNALGDHLLEHFIEAKEIEWDIFRTQVHQWERDQYMSLY” as the sequence, how does the “soluble on expression in E. coli” value read?
The value was “not soluble”.

Which “soluble on expression in E. coli” value does the source give for “MASDYKDDDDKRRRGMEGAKLSAVRIAVREAPYRQFLGRREPSVVQFPPWSDGKSLIVDQNEFHFDHAFPATISQDEMYQALILPLVDKLLEGFQCTALAYGQTGTGKSYSMGMTPPGEILPEHLGILPRALGDIFERVTARQENNKDAIQVYASFIEIYNEKPFDLLGSTPHMPMVAARCQRCTCLPLHSQADLHHILELGTRNRRVRPTNMNSNSSRSHAIVTIHVKSKTHHSRMNIVDLAGSEGVRRTGHEGVARQEGVNINLGLLSINKVVMSMAAGHTVIPYRDSVLTTVLQASLTAQSYLTFLACISPHQCDLSETLSTLRFGTSAKAAALEHHHHHH” here?
The value was “soluble”.

For “MASEASVRLGVPPGRLWIQRPGIYEDEEGRTWVTVVVRFNPSRREWARASQGSRYEPSITVHLWQMAVHTRELLSSGQMPFSQLPAVWQLYPRRKYRAADSSFWEIADHGQIDSMEQLVLTYQPERKD”, which “soluble on expression in E. coli” value is on record?
Its value is “not soluble”.

For “MASEMKFAWLLAPDTYWDEKKTFITAALESGIDHIVDTADSGRIKKLGNLTLISPDEDADIVLVGRDGEGDGTLELPETLEYSRDIEMASELSESGRQVAAYVEIRSKAHEELARRLGRVVDYLILVGEDWKIIPLENIIADLQEEDVKLIAAVADVDEARVALETLEHGTDGVLIEPADISQIKDIAALLENIESETYELKPATITRIEPIGSGDRVCVDTCSIMGIGEGMLVGSYSQGLFLVHSESLESEYVASRPFRVNAGPVQAYVMVPGGRTRYLSELETGDEVIIVDRDGRSRSAIVGRVKIEKRPLMLVEAEYEGMKVRTLLQNAETIRLVNDKGEPVSVSELGEGDRVLVYFDESARHFGMAIKETIIEKLEHHHHHH”, which “soluble on expression in E. coli” value is on record?
The value was “soluble”.

With “MASIVFSTIGNPKGYQKVTYEIDGEKFESNVSVLALRDLLKVDKTVVILGISVADVYNCKYADYRSCKECIIQNSKNDLGISESYVVAPNVYQKFKGKPDHYFTYIYYHSLRILEKEGINEVFIDTTHGINYMGVLAKEAIQLAVSAYAAKSEKEVKVSLYNSDPVGKDVSDTVKLHEIEAIKISPLSGLKYVTYQILNKDKNFFNKIFSDSVNAIPRFATALDNGLFIYLSEKDSSLHLKRLEDDLSKDPLLTPSENEINVVYKDMKYALSHALFYVISRFSGNVDLDTLRHYAETYADKVTRAIIENEVDKIEKYQMGSERKLLGEYMKVEGKGFDKRILYAHGGLPYAGTYVYKEKDKVYVTYGDKIDEIERQI” as the sequence, how does the “soluble on expression in E. coli” value read?
Its value is “soluble”.

With “MASKAVILAGGLGTRLSEETIVKPKPMVEIGGKPILWHIMKMYSVHGIKDFIICCGYKGYVIKEYFANYFLHMSDVTFHMAENRMEVHHKRVEPWNVTLVDTGDSSMTGGRLKRVAEYVKDDEAFLFTYGDGVADLDIKATIDFHKAHGKKATLTATFPPGRFGALDIQAGQVRSFQEKPKGDGAMINGGFFVLNPSVIDLIDNDATTWEQEPLMTLAQQGELMAFEHPGFWQPMDTLRDKVYLEGLWEKGKAPWKTWE” as the sequence, how does the “soluble on expression in E. coli” value read?
The value was “soluble”.

For “MASKKISLTKPKYQQIAVDVAEKIAEGKLHVGDKIHARSTLANQYQVSPETARKAIIVLVDLEIVKAKHGSGFYVASKEKAQDFVTQYQDVQTIAEIKEELLDSVAKQKEELTHFSSILDTLVEQTKRFDSFNPMNPYSLVLTEEAAYLEATISEMNFWQNTSATIIAIKHKEELLVSPGPYAKISLNDTLYFVGHDESTLQRVQNFFYP”, which “soluble on expression in E. coli” value is on record?
The value was “not soluble”.

For “MASKVYDPEQRKRMITGPQWWARCKQMNVLDSFINYYDSEKHAENAVIFLHGNATSSYLWRHVVPHIEPVARCIIPDLIGMGKSGKSGNGSYRLLDHYKYLTAWFELLNLPKKIIFVGHDWGAALAFHYAYEHQDRIKAIVHMESVVDVIESWDEWPDIEEDIALIKSEEGEKMVLENNFFVETVLPSKIMRKLEPEEFAAYLEPFKEKGEVRRPTLSWPREIPLVKGGKPDVVQIVRNYNAYLRASDDLPKLFIESDPGFFSNAIVEGAKKFPNTEFVKVKGLHFLQEDAPDEMGKYIKSFVERVLKNEQVDHHHHHH”, which “soluble on expression in E. coli” value is on record?
The value was “soluble”.

For “MASLATSISGSFRILVKSSSTRNGFPVISDQNPSFVLFANKRRHISRTAIFHRSAISGSSQGEKISPLASGVSSGLYSAQTFDLTPQNVDLVLEDVRPFLISDGGNVDVVSVEDGVVSLKLQGACTSCPSSSTTMTMGIERVLKEKFGDALKDIRQVFDEEVKQITVEVSEASF”, which “soluble on expression in E. coli” value is on record?
Its value is “not soluble”.

Which “soluble on expression in E. coli” value does the source give for “MASLIQVRDLLALRGRMEATQISHTLHAPQPMIDAMLNQLEIMGKAVRIPEEPDGCLSGSCKSCPEGKACLREWWALR” here?
Its value is “not soluble”.
